Reference: the supplement of paper PMC7125110
± gives the standard error. Fewer inactive variants are shown than the library holds.

B1: glmS ribozyme (parent)
chain: AUAAAAGCGCCAGAACUACAGAAAUGUAGUUGACGAGGAGGAGGUUUAUCGAAUUUUCGGCGGAUGCCUCCAAA

Variants of: B1
Test: self-cleavage kobs at 2500 uM GlcN6P; higher = faster cleavage; RNA array
Conditions: with glucosamine-6-phosphate
How it was run: (§1)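 Barcoded glmS ribozyme variants on sequenced MiSeq chips were transcribed in situ by E. coli RNA polymerase and tracked through a hybridised Cy3 probe at 37 °C. Glucosamine-6-phosphate (40 μM to 10 mM) in HEPES/KCl/Mg(OAc)2 buffer was flowed in, and tiles were imaged over ~14 h. Signals were normalised to baseline and to non-cleaving reference variants; per-tile medians were fit to one- or two-exponential decays to give kobs. kcat and KM came from weighted Michaelis–Menten fits across concentrations.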

Row | Variant | self-cleavage kobs at 2500 uM GlcN6P [s⁻¹]
1 | C10G C11G G13U U69C C70G | < 1e-05
2 | G9C C16G A39G | < 1e-05
3 | G7U A14C C16A | < 1e-05
4 | G9C A14G U69G | < 1e-05
5 | A12G U54A U55G | 0.000119 ± 4.5e-05
6 | C10U A42C G43U C67A | < 1e-05
7 | A12G G29C G35U A39U G41C A64G | < 1e-05
8 | C11G G13A G44A | < 1e-05
9 | G7U C16U A36G G37U G41U C61A | < 1e-05
10 | G9U A12C A14C A48G U49A | < 1e-05
11 | C11A G38C G40U G59A | < 1e-05
12 | G9U U31G G44U C61U | < 1e-05
13 | A12U C16A U46C | 0.000144 ± 4.6e-05
14 | G7U U31C A36U A39C A42G G59U G66U | < 1e-05
15 | C11U G43U U47G | < 1e-05
16 | A12U C34A G35A U49G | < 1e-05
17 | A12C A36G C71U | < 1e-05
18 | A12G G32U A36U U49A C50G | < 1e-05
19 | G9A A15U A48G C70G C71U | < 1e-05
20 | A12G G32C A36U | < 1e-05
21 | A12U G13A G38U | < 1e-05
22 | C8A G32U G37U | < 1e-05
23 | C8A C10U A39G U57C | < 1e-05
24 | C8A A39C G59U A64C | < 1e-05
25 | C8G C16A G43U G44U G62A | < 1e-05
26 | G7C G32U U45C U49C | < 1e-05
27 | A12G A39U U49G U55G | < 1e-05

Row | Variant | self-cleavage kobs at 2500 uM GlcN6P [s⁻¹]
28 | C8G A33C C34U U46G U65C | < 1e-05
29 | G9U C11G A12G A48U G51C | < 1e-05
30 | C10A G35A G40C | < 1e-05
31 | G9U A39G G44C C67G | < 1e-05
32 | C11A C34A G41A | < 1e-05
33 | A12U G44C C61G | < 1e-05
34 | A12G A39C A42U | 3.14e-05 ± 1.5e-05
35 | C11G G60C G63C | < 1e-05
36 | C8U G43U G62C C68U | < 1e-05
37 | A12U G37U G38A | < 1e-05
38 | C11U G44U U69G | < 1e-05
39 | G9U A14G U45A C67A | < 1e-05
40 | A12G A14U U49C C50G C61U | < 1e-05
41 | C10G A15G C34A G37A | < 1e-05
42 | C11A A52U U65C | < 1e-05
43 | G9C A42C A48C C58G C71G | < 1e-05
44 | G7C G51U A53U G60U | < 1e-05
45 | G9C G37C A42U G43C C50U C67G C71A | < 1e-05
46 | A12G C34A U45A | < 1e-05
47 | A12U A39G U55C | 0.0482 ± 0.021
48 | C11U U49C G63C | < 1e-05
49 | G9U C16U A33U | < 1e-05
50 | C11G G41U A48C C70G | < 1e-05
51 | C10G G37C C67U | < 1e-05
52 | C8U A33G A64U | < 1e-05
53 | G9U U31A C67A C70U | < 1e-05
54 | C8G C10U C11U G13A C34G | < 1e-05

Row | Variant | self-cleavage kobs at 2500 uM GlcN6P [s⁻¹]
55 | C11A U31A A33G | < 1e-05
56 | G9U G41A C67U | < 1e-05
57 | A12G G29U C58A G59U C67A | < 1e-05
58 | C8G A12U A39U | < 1e-05
59 | C10G G13C A14G U31C U47A | < 1e-05
60 | C10U C16U A33U | 6.87e-05 ± 3.4e-05
61 | C8U U55G C61U C68A | < 1e-05
62 | G9A C10U U30A G44A | < 1e-05
63 | G7C G13U U31G G37C G59A G60U | < 1e-05
64 | C8A C10U G32A A48G | < 1e-05
65 | C8G A12G U54G A64C U65A C71G | < 1e-05
66 | C8U C16U G37C A39G U54C | < 1e-05
67 | G9U G13U G29C G32C A33G | < 1e-05
68 | C11U A64U C68U C71U | < 1e-05
69 | G9C A15U G66C C70G | < 1e-05
70 | A12G G13C G29A G40A U45C | < 1e-05
71 | A12G C16U A53C | 7.22e-05 ± 1.7e-05
72 | C8A A14G A64U | < 1e-05
73 | A12U A14U A33C C50U | < 1e-05
74 | C11U U47C G62A | < 1e-05
75 | C8A C10G A39C | < 1e-05
76 | G9C G59C G63U | < 1e-05
77 | C8A C50U A64U | < 1e-05
78 | C10U A33C A36U U54A | < 1e-05
79 | G9C C10U A36U A48U C71G | < 1e-05

Variants of: B1
Test: self-cleavage kobs at 10000 uM GlcN6P; higher = faster cleavage; RNA array
Conditions: with glucosamine-6-phosphate
How it was run: as §1

Row | Variant | self-cleavage kobs at 10000 uM GlcN6P [s⁻¹]
80 | C10U A42C G43U C67A | < 1e-05
81 | A12U C16A U46C | 0.000331 ± 7.6e-05
82 | C11G G60C G63C | < 1e-05
83 | A12G C34A U45A | < 1e-05
84 | C8G C10U C11U G13A C34G | < 1e-05
85 | C10U C16U A33U | 3.41e-05 ± 1.4e-05
86 | G9C G59C G63U | < 1e-05
87 | G9C C10U A36U A48U C71G | < 1e-05
